The values below are quoted from earlier work in article PMC3478875.

Read-outs that look alike come from different tables or passages of the source.

Data set [1] deals with plasminogen (Homo sapiens) (UniProt P00747).
The target is the same in data set [2]. The source holds these as a separate data set.
For data set [3], the target named is plasmin (Homo sapiens) (UniProt P00747).
The target of data set [4] is plasminogen (Homo sapiens) (UniProt P00747). This is another data set of the same source.
Data set [5] deals with Glu-plasminogen (Homo sapiens) (UniProt P00747).
Data set [6] shares this target. This is another data set of the same source.
Data set [7] addresses Lys-plasminogen (Homo sapiens) (UniProt P00747).

By Kd is commonly meant the concentration at which binding is half-saturated. For the substance DnaK (from UniProt B8DT62), in data set [1], the equilibrium dissociation constant (Kd) is 12 nM.

Turning to “Fructose-1,6-bisphosphate aldolase (from UniProt P9WQA2)”, the Kd in data set [2] was 6.73 nM.

Turning to GAPDH (from UniProt Q59906), the values for the Kd in data set [3] and in data set [4] were 25 nM and 220 nM, respectively.

With “Outer surface protein A (OspA) (from UniProt Q09087)”, the equilibrium dissociation constant (Kd) in data set [5] is 260000 nM.

alpha-enolase (from UniProt P69949): the Kd is 1.6 nM in data set [6] and 127 nM in data set [7].
